We go through six proteins from article doi:10.1101/2021.02.05.429969 (bioRxiv, 2021).

B1: CagFbFP-Q148N (domain or fragment)
chain: MASGMIVTDAGADQPIVFVNRAFSTITGYAPNEVLGRNARFLQGPQTDAATVARLREAIAAARPIQERILNYRKDGQPFWNQLSISPVRDETGNVVAFVGVNTDVTA
B2: CagFbFP-Q148K (domain or fragment)
chain: B1 chain with N102K
B3: CagFbFP-Q148E (domain or fragment)
chain: B1 chain with N102E
B4: CagFbFP-Q148R (domain or fragment)
chain: B1 chain with N102R
B5: CagFbFP-Q148H (domain or fragment)
chain: B1 chain with N102H
B6: CagFbFP-Q148D (domain or fragment)
chain: B1 chain with N102D

Substitutions are numbered along the chain they refer to. Names may count otherwise.

This data set deals with the molecule itself. Nature of the data set: crystal structure.
In the case of B1, the binding result is listed as “binds”.

On to B2, for which the binding result was “binds”. Under B3 stands “binds”; under B4, “binds”; under B5, “binds”. The value for B6 was “binds”.
